Measured values: patent publication US20240002795A1 (published 2024)

T1: RET M918T peptide on HLA-DPA1*01:03 / HLA-DPB1*04:01 (human)
T1 peptide: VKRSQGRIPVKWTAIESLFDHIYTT

T2: RET wild type peptide on HLA-DPA1*01:03 / HLA-DPB1*04:02 (human)
T2 peptide: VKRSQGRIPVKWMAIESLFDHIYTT

T3: RET wild type peptide on HLA-DPA1*01:03 / HLA-DPB1*04:01 (human)
T3 peptide: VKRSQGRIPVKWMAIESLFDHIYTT

T4: RET M918T peptide on HLA-DPA1*01:03 / HLA-DPB1*04:02 (human)
T4 peptide: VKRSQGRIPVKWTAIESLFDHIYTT

B1: TCR-ID-2 (TCR, V domains shown)
Valpha: AQKITQTQPGMFVQEKEAVTLDCTYDTSDQSYGLFWYKQPSSGEMIFLIYQGSYDEQNATEGRYSLNFQKARKSANLVISASQLGDSAMYFCAMREGDGDDMRFGAGTRLTVKP
Vbeta: EPEVTQTPSHQVTQMGQEVILRCVPISNHLYFYWYRQILGQKVEFLVSFYNNEISEKSEIFDDQFSVERPDGSNFTLKIRSTKLEDSAMYFCASSSQIQTVMNTEAFFGQGTRLTVV
B2: TCR-ID-3 (TCR, V domains shown)
Valpha: DQQVKQNSPSLSVQEGRISILNCDYTNSMFDYFLWYKKYPAEGPTFLISISSIKDKNEDGRFTVFLNKSAKHLSLHIVPSQPGDSAVYFCAASGHGGSQGNLIFGKGTKLSVKP
Vbeta: GAGVSQSPRYKVAKRGQDVALRCDPISGHVSLFWYQQALGQGPEFLTYFQNEAQLDKSGLPSDRFFAERPEGSVSTLKIQRTQQEDSAVYLCASSLRFLGQGSYEQYFGPGTRLTVT
B3: TCR-ID-1 (TCR, V domains shown)
Valpha: GNSVTQMEGPVTLSEEAFLTINCTYTATGYPSLFWYVQYPGEGLQLLLKATKADDKGSNKGFEATYRKETTSFHLEKGSVQVSDSAVYFCALSENAGNQFYFGTGTSLTVIP
Vbeta: NAGVTQTPKFQVLKTGQSMTLQCAQDMNHEYMSWYRQDPGMGLRLIHYSVGAGITDQGEVPNGYNVSRSTTEDFPLRLLSAAPSQTSVYFCASSRGNTQYFGPGTRLTVL

Key:
Assay in all cases: activation reporter or marker
[1] = target: T1, RET M918T peptide on HLA-DPA1*01:03 / …
[2] = target: T2, RET wild type peptide on HLA-DPA1*01:03 …
[3] = target: T3, RET wild type peptide on HLA-DPA1*01:03 …
[4] = target: T4, RET M918T peptide on HLA-DPA1*01:03 / …

Binder | binding result [1] | binding result [2] | binding result [3] | binding result [4]
B1 | recognises | no recognition | no recognition | recognises
B2 | recognises | – | no recognition | recognises
B3 | recognises | no recognition | no recognition | recognises
